Numbering of substitutions follows the chain as printed. Numbers in names are those of the source. One block for each binder: values may come before it.
Legend:
[1] = target: T1, mouse MSR1 extracellular domain expressed with a N-terminal nonahistidine tag (His9-mMSR1); R&D Systems, Cat … (mouse, UniProt P30204 79-458); experiment: BLI Octet, 25 C, antibody captured
T1 construct: extracellular domain; not shown: N-terminal nonahistidine tag
T1 sequence (looked up): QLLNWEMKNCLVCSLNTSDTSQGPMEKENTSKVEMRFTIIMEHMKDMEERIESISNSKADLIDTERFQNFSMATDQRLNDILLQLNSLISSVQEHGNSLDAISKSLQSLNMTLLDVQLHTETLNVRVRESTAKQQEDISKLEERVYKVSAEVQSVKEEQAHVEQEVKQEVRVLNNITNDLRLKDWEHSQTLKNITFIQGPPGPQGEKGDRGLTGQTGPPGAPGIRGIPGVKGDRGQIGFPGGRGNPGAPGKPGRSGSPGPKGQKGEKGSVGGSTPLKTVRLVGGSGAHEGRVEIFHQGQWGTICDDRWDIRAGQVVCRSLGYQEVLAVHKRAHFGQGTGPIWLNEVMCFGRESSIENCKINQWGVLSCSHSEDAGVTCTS

[2] = target: T2, human MSR1 extracellular domain expressed with a N-terminal nonahistidine tag (His9-hMSR1); R&D Systems, Cat … (human, UniProt P21757 77-451); experiment: BLI Octet, 25 C, antibody captured
T2 construct: extracellular domain; also called His-hMSR1; 9xHis-hMSR1; not shown: N-terminal nonahistidine tag
T2 sequence (looked up): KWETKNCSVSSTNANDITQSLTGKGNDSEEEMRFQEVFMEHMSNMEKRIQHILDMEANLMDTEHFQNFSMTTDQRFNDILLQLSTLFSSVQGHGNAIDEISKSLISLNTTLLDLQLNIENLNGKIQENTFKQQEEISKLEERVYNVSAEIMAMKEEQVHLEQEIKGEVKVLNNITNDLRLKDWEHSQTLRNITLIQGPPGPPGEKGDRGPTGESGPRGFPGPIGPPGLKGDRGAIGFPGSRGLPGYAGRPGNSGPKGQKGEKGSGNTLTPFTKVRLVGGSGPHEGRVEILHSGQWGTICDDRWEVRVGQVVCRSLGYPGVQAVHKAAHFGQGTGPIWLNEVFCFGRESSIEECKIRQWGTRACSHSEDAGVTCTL

[3] = target: T3, monkey MSR1 extracellular domain expressed with a N-terminal hexahistidine-myc-myc tag (HMM-mfMSR1) (monkey (Macaca fascicularis)); experiment: BLI Octet, 25 C, antibody captured
T3 chain: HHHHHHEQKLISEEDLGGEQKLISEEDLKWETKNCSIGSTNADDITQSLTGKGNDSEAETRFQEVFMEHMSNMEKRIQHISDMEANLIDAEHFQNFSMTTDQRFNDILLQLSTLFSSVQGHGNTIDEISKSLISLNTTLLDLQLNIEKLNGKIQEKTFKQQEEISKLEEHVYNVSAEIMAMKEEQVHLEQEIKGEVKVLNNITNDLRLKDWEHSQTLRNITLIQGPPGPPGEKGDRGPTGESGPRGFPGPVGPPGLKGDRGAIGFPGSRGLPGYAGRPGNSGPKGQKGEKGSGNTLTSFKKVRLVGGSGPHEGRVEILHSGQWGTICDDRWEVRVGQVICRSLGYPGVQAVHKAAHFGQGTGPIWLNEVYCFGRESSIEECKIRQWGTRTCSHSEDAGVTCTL
Method: Binding affinities and kinetic constants of human anti-MSR1 antibodies for different MSR1 reagents were determined using a real time, label-free bio-layer interferometry assay on an OCTET® HTX biosensor platform (Pall FortéBio Corp., Menlo Park, Calif.). The experiment was performed at 25° C. in 10 mM HEPES, 150 mM NaCl, 3 mM EDTA, 0.05% v/v Surfactant Tween-20, and 1 mg/mL BSA, pH7.4 (HBS-EBT) buffer with the plate shaking at the speed of 1000 rpm. […] The anti-MSR1 monoclonal antibodies were captured by dipping either anti-human Fc (AHC) or anti-mouse Fc (AMC) Octet biosensors in wells containing 5 pg/mL or 10 pg/mL of anti-MSR1 monoclonal antibody for 45-90 seconds. […] The binding of different MSR1 reagents to the captured anti-MSR1 monoclonal antibody was measured for 4 minutes and the dissociation of monoclonal antibody bound MSR1 reagent was monitored for 8-10 minutes in HBS-EBT buffer.
(§1) The association rate (kₐ) and dissociation rate (kd) were determined by fitting the real-time binding sensorgrams to a 1:1 binding model with mass transport limitation using Scrubber 2.0c curve-fitting software. Binding dissociation equilibrium constant (KD) and dissociative half-life (t½) were calculated from the kinetic rates as:

[4] = target: T4, full length monkey MSR1 on HEK293.mfMSR1 cells (Macaca fascicularis, UniProt A0A2K5UWE2 1-451); experiment: ECL cell binding, HEK293.mfMSR1 cells, 11 nM
T4 construct: whole, on cells
T4 sequence: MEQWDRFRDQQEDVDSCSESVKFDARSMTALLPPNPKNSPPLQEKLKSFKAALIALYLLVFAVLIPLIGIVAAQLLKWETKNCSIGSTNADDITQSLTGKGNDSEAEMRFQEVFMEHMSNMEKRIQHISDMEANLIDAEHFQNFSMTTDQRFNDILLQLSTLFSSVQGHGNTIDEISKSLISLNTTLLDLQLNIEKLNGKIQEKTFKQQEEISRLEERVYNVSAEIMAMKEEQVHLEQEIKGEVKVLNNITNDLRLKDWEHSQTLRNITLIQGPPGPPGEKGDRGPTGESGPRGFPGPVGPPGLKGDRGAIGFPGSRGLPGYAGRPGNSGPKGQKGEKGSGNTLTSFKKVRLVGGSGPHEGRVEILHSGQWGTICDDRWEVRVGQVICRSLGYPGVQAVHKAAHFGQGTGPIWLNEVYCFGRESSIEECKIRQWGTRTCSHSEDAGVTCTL
Method: All cells were washed once with 1×PBS with Ca²⁺/Mg²⁺ and counted with a Cellometer™ Auto T4 cell counter (Nexcelom Bioscience). Approximately 1.0×10⁴ cells were seeded separately onto 96-well carbon electrode plates [MULTI-ARRAY high bind plate, Meso Scale Diagnostics] and incubated for 1 hour at 37° C. Non-specific binding sites were then blocked by 2% BSA (w/v) in PBS with Ca²⁺/Mg²⁺ for 1 hour at room temperature. THP-1 cells were pre-incubated for 0.5 hours at room temperature in sample dilution buffer with: 1) 1 mg/mL Fc receptor block reagents to block Fc gamma receptors on THP-1 cell surface [whole molecule human IgG (Jackson Immunoresearch, Cat #009-000-003) for wells being tested with anti-MSR1-mFc antibodies or 2) whole molecule mlgG (Jackson Immunoresearch, Cat #015-000-003) for wells being tested with anti-MSR1-hFc antibodies. Antibody binding on HEK293.Myc.hMSR1, HEK293.mfMSR1 and HEK293 cells was tested without Fc receptor block reagents. […] Plates were then washed to remove unbound antibodies an AquaMax2000 plate washer with a cell washing head (MDS Analytical Technologies). […] Plates were washed and developed with Read Buffer (Meso Scale Diagnostics, Cat # R92TD-2) according to manufacturer's recommended procedure and luminescent signals were recorded with a SECTOR Imager 600 (Meso Scale Diagnostics). Luminescence intensity, measured in relative light units (RLU), was recorded to indicate the binding intensity of each antibody at the range of concentrations.

[5] = target: T5, full length human MSR1 with a C-terminal Myc tag, on HEK293.Myc.hMSR1 cells (human, UniProt P21757 1-451); experiment: ECL cell binding, HEK293.Myc.hMSR1 cells, 11 nM
T5 construct: whole, on cells; stably expressed on engineered HEK293 cells; not shown: C-terminal Myc tag
T5 sequence (looked up): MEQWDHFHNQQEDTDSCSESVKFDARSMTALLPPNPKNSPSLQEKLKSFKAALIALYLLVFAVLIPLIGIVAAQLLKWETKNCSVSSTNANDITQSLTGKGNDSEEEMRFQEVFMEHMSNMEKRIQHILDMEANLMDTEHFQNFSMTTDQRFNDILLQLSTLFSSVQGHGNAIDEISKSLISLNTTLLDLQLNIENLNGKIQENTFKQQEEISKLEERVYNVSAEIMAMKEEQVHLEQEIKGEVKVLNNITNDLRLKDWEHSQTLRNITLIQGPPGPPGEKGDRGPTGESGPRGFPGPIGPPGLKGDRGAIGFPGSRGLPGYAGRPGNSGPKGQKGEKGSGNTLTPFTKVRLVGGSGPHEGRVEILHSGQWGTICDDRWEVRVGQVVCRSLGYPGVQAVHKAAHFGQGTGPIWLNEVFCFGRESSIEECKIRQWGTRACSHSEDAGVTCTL

[6] = target: T6, mouse MSR1 on RAW264.7 cells (mouse, UniProt P30204 1-458); experiment: flow cytometry, RAW264.7 cells
T6 construct: whole, on cells; also called MSR1 positive RAW264.7 cells
T6 sequence (looked up): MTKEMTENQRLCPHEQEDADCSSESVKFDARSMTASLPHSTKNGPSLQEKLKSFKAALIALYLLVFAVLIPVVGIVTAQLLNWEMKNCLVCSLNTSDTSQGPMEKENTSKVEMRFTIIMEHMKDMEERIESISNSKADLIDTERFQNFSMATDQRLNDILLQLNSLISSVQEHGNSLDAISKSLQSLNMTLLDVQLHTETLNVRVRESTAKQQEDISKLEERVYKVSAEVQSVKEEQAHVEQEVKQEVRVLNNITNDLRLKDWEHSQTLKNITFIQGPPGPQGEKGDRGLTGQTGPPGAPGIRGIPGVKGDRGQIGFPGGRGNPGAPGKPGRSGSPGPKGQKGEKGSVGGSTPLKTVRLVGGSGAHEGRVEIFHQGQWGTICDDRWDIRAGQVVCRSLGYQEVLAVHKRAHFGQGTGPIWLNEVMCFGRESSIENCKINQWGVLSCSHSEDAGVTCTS
Method: To block binding to Fc receptors, RAW264.7 cells were incubated for 30 minutes at 4° C. with 500 pg/mL mouse IgG (Jackson ImmunoResearch, Cat #015-000-003) diluted in staining buffer, while B16F10.9 cells remained in staining buffer. […] The signal to noise (S/N) was determined by calculating the ratio of the anti-MSR1 antibodies or the control antibodies MFI to the unstained sample MFI (Table 11).

[7] = target: T5, full length human MSR1 with a …; experiment: cell-based or functional assay
[8] = target: T2, human MSR1 extracellular domain …; experiment: SPR Biacore, 25 C, antibody captured; kd fixed, no dissociation seen
Method: (§2) Binding affinities and kinetic constants of human anti-MSR1 antibodies for different MSR1 reagents were determined by real-time surface plasmon resonance (Biacore 4000). All binding studies were performed in 10 mM HEPES, 150 mM NaCl, 3 mM EDTA, and 0.05% v/v Surfactant Tween-20, pH 7.4 (HBS-ET) running buffer at 25° C. and 37° C.
as §1

[9] = target: T2, human MSR1 extracellular domain …; experiment: SPR Biacore, 37 C, antibody captured
[10] = target: T3, monkey MSR1 extracellular domain …; experiment: SPR Biacore, 37 C, antibody captured
[11] = target: T3, monkey MSR1 extracellular domain …; experiment: SPR Biacore, 25 C, antibody captured;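 note: rates from 1:1 fit with mass transport limitation of real-time sensorgrams, HEPES-buffered saline with EDTA and Tween-20 at pH 7.4, KD and t½ derived from the kinetic rates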
Method: as §2, §1

binding result [1]: no binding (tested: 100 nM)
Kd [2]: 954 pM
koff [2]: 0.000116 s⁻¹
kon [2]: 122000 M⁻¹ s⁻¹
t½ [2]: 1.67 h
Kd [3]: 1450 pM
koff [3]: 0.000146 s⁻¹
kon [3]: 100000 M⁻¹ s⁻¹
t½ [3]: 1.32 h
B1: H2aM21228N (antibody, V domains shown)
VH: VQLVESGGGLVQPGGSLRLSCAASGFTFSDHYMDWVRQAPGKGLEWVGRTRNKANSHTTEYAASVSGRFTISRDDSKNSLYLQMNSLKTEDTAVYYCTRAGIIGTLFDYWGQGTLVTVSS
VL: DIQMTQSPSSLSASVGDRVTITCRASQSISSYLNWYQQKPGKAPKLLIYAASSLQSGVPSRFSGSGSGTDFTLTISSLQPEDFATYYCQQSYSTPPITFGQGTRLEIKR
notes: Human variable domains with mouse IgG2a Fc; tied by the numerical identifier

binding result [1]: no binding (tested: 100 nM)
Kd [2]: 1460 pM
koff [2]: 0.000527 s⁻¹
kon [2]: 360000 M⁻¹ s⁻¹
t½ [2]: 0.367 h
Kd [3]: 1830 pM
koff [3]: 0.000571 s⁻¹
kon [3]: 312000 M⁻¹ s⁻¹
t½ [3]: 0.333 h
B4: H2aM25695N (antibody, V domains shown)
VH: QVQLQESGPGLVKPSETLSLTCTVTGGSISRNYWSWIRQPPGKGLEWIGYIYYSGSINYNPSLKSRVTISVDMSKNQFSLKLNSVTAADTAVYYCARDRWNWKYGMDVWGQGTTVIVSS
VL: EIVLTQSPGTLSLSPGERATLSCRASQTVRNSYLAWYHQKPGQAPRLLIYGASSRATGIPDRFSGSGSGTDFTLTISRLEPEDFAVYYCQQYGSSYWTFGQGTKMEIKR
notes: as for B1

The next lines start with the binder.

B2: H1H27731P-N297Q (antibody, V domains shown)
VH: QLQLQESGPGLVKPSETLSLTCTVSGGSISRISYYWGWIRQPPGKGLEWIGSIYDSGSTYYNPSLKSRVTISIDTSKNQFSLKLSSVTAADTAVYYCVRYSSSSAFAFDYWGQGTLVTVSS
VL: DIQMTQSPSSVSASVGDRVTITCRASQGISSWLAWYQQKPGKAPKLLIYAASSLQSGVPSRFSGSGSGTDFTLTISSLQPEDFATYYCQQANSFPFTFGPGTKVDIKR
notes: human IgG1 Fc with N297Q
ratio of binding signal (RLU) to isotype control [4]: 43 fold
ratio of binding signal (RLU) to isotype control [5]: 48 fold
MFI [6]: 3510 MFI
S/N (MFI over unstained MFI) [6]: 1
% Inhibition of Dil-Acetylated LDL uptake [7]: 37%
% Inhibition of Dil-Oxidized LDL uptake [7]: 62%
IC50 of Dil-Acetylated LDL uptake inhibition [7]: 1800 pM
IC50 of Dil-Oxidized LDL uptake inhibition [7]: > 10000 pM

B3: H1H27754P-N297Q (antibody, V domains shown)
VH: EVQLVESGGGLVQPGGSLRLSCAASGFTFRTYAMTWVRQAPGKGLDWVSAITGDGGNTYYADSVKGRFTISRDNSKNTLYLQMNSLRAEDTAIYYCAKDQRFSFALYYFDYWGQGTLVTVSS
VL: B2 VL with K42N, S52F, S93N, F96W, P100Q, D105E
notes: Human IgG1 Fc with N297Q point mutation
binding result [1]: no binding (tested: 50 nM)
Kd [8]: ≤ 34.4 pM
koff [8]: ≤ 1e-05 s⁻¹
kon [8]: 290000 M⁻¹ s⁻¹
t½ [8]: 19.2 h
Kd [9]: 38.1 pM
koff [9]: 2.53e-05 s⁻¹
kon [9]: 663000 M⁻¹ s⁻¹
t½ [9]: 7.62 h
Kd [10]: 50.4 pM
koff [10]: 3.53e-05 s⁻¹
kon [10]: 701000 M⁻¹ s⁻¹
t½ [10]: 5.45 h
Kd [11]: 75 pM
koff [11]: 1.76e-05 s⁻¹
kon [11]: 235000 M⁻¹ s⁻¹
t½ [11]: 10.9 h

B5: H1H27732P-N297Q (antibody, V domains shown)
VH: QLQLQESGPGLVKPSETLSLTCTVSGGSISSSTYYWGWIRQPPGKGLEWIGSFYYSGSTYYNPSLKSRVTISVGTSKNQFSLKLSSVTAADTAVYFCARGGLLGRPFVIWGQGTMVTVSS
VL: DIQMTQSPSSLSASVGDRVTITCRASQGIRNDLGWYQQKPGKAPKRLIYAASSLQSGVPSRFSGSGSGTEFTLTISSLQPEDFATYYCLQHNSYPLTFGGGTKVEIKR
notes: as for B3
binding result [1]: no binding (tested: 50 nM)
Kd [8]: ≤ 80.1 pM
t½ [8]: 19.2 h
Kd [9]: 111 pM
t½ [9]: 6.17 h
Kd [10]: 317 pM
t½ [10]: 1.82 h
Kd [11]: 248 pM
t½ [11]: 6.07 h

B6: H1H27734P-N297Q (antibody, human IgG1, V domains shown)
VH: EVQLVESRGGLVQPGGSLRLSCAASGFTFSSYAMSWVRQAPGKGLEWVSAISGSGGSTFYADSVKGRFTISRDNSKNTVYLQMNSLRAEDTAVYYCAKALVLRFLEWLGDYWGQGTLVTVSS
VL: DIQMTQSPSTLSASVGDRVTITCRASQSISSWLAWFQQKPGKAPKLLIYKASSLESGVPSRFSGSGSGTEFTLTISSLQPDDFATYYCQQYKSYWTFGQGTKVEIKR
notes: human IgG1 Fc with N297Q
ratio of binding signal (RLU) to isotype control [4]: 28 fold
ratio of binding signal (RLU) to isotype control [5]: 40 fold
MFI [6]: 4780 MFI
S/N (MFI over unstained MFI) [6]: 1
% Inhibition of Dil-Oxidized LDL uptake [7]: 22%
IC50 of Dil-Oxidized LDL uptake inhibition [7]: 5500 pM

Reference: US20190367631A1 (Regeneron, published 2019)
